Results: article PMC12548415 (2025)

Assays:
[1] = target: wild-type raccoon dog parvovirus strain RDPV/FLD/2010, capsid of VP2 (raccoon dog parvovirus, strain …); test: BLI
[2] = target: wild-type raccoon dog parvovirus strain RDPV/CL/2016, capsid of VP2 (raccoon dog parvovirus, strain …); test: BLI

B1: raccoon dog transferrin receptor ectodomain (recombinant RDTfR, from residue 121, C-terminal 6x His) (receptor)
chain: EEYFPETPSRLFWTDLKTMLSERLSNTDFTNTMRWLNENSYVPREAGSQKDESLALLIENRFREFQLSKSWRDEHFVKIQVKSSNAQNTVTIVGTESGLVYLVENPEGYVAYSKATTVTGRLVHVNFGTKKDFENLKSPVNGSLVIARAGKITFAEKVANAQSYNALGVLIYMDQARFPIVNAQIPFFGHAHLGTGDPYTPGFPSFNHTQFPPSQSSGLPSIPVQTIPRAVAEKLFENMEGDCPSAWEIDPSCRLETSPNKNVKLTVNNVLKEIRIFNIFGVIKGFEEPDRYVVIGAQRDAWGPGAAKSSVGTALLLELARIFSDMVLKGGFKPSRSIVFASWSAGDFGAIGATEWLEGYLSSLHLKAFTYINLDKAILGTSNFKVSASPLLYSLLEKTMKDVKHPITGQSLYRDSNWINKVEKWSLDNAAFPFLAYSGIPAVSFCFCEDTDYPYLGTTMDLYENLNQKIPQLNKMARGAAEVAGQLIIKLTYDLELNLNYEMYNDKILSFVRDMNQFRTDLKEMGLNLQWLYSARGDFFRATSRLTTDYKNAERTNRFVMREINDRIMKVEHNFLSPYVSPRDSPFRHIFWGSGSHTLPALVEHLKLRQKNNSAFNETLLRNQLALATWTIQGAANALSGDIWDIDNEL
[1]
  koff: 0.0126 s⁻¹
[2]
  koff: 0.00441 s⁻¹
